# Test results as given in the RNAGym collection of RNA variant scans (doi:10.7554/elife.80360).
# B1: HDV Ribozyme (parent)
# chain: GGCCGGCAUGGUCCCAGCCUCCUCGCUGGCGCCGGCUGGGCAACAUUCCGAGGGGACCGUCCCCUCGGUAAUGGCGAAUGGGACCCA
# Variants of: B1
# Experiment: self-cleavage, relative activity (ratio to wild type); higher = more cleavage; co-transcriptional
row,Variant,self-cleavage
1,C7A G76U,0.849
2,G6A C61G,0.712
3,G5U U20A,0
4,C7G C21U,0.0594
5,G5U C15U,0.723
6,G5U C15A,0.0831
7,G6A G54U,0.819
8,G6A G54A,0.471
9,G6U G80U,0.0838
10,G6U A16G,0.388
11,G6U A16C,0
12,C7A C66U,0.587
13,G6A G82C,0
14,C7A G29A,0.0804
15,G5C U60G,0.185
16,C7A C26A,0.615
17,G5U G39C,0.26
18,G5C G59A,0.344
19,G6U G17U,0.0519
20,G6C U27A,0.332
21,G6C U27G,0.0791
22,G6C G76C,0.364
23,G5U G38U,0.453
24,G5U G38A,0.119

row,Variant,self-cleavage
1,G6C C21G,0.0875
2,G6U C18A,0.131
3,G6U C18G,0
4,G6C U60C,0.453
5,G6C U60G,0.312
6,C7A C64A,0.227
7,C7A U20A,0
8,G5U C57G,0.256
9,G5U C57U,0.604
10,C7A G35C,0.0665
11,G6U U79G,0.185
12,G5C C64G,0.0462
13,G5U G74A,0.125
14,G5U G74C,0.0475
15,G5C G11C,0.196
16,C7G C19A,0.0831
17,G6U U37C,0.943
18,G6C C63U,0.348
19,G6U C41G,0.237
20,G6U C41U,0.259
21,G6U C41A,0.269
22,C7G A83U,0
23,G5C G73U,0.0504
24,G6C G59U,0.314

row,Variant,self-cleavage
1,G6A C32A,0.277
2,G5U C22A,0.0415
3,G5C G50A,0.302
4,G6A A45C,0.0519
5,G6A A45G,0.425
6,G6U C26U,0.892
7,G6U G82A,0.0875
8,G5C C75A,0.0536
9,G5C U65A,0.246
10,G5U C26A,0.697
11,G6C A45C,0.185
12,G6A G53C,0.928
13,G5U C7A,0.566
14,G6A C57G,0.643
15,G6A C57A,0.966
16,G5U G73U,0.122
17,G5U G73A,0.0665
18,G6A G35C,0.119
19,G5U C32G,0.196
20,G5U C32A,0.0875
21,G6C G54A,0.415
22,C7A C57G,0.571
23,C7A U27C,0.287
24,G6U C85A,0.394

row,Variant,self-cleavage
1,C7A G25C,0
2,G6U U20G,0
3,G6C U20A,0
4,G5C U47A,0.158
5,G6U G11A,0.0437
6,G6U C66A,0.443
7,G6U C66G,0.54
8,G6U C57A,0.623
9,C7A A43U,0.0386
10,C7A G28A,0.123
11,G5U U65C,0.723
12,C7A C22U,0
13,C7A C22A,0.0941
14,G5C G17A,0.0852
15,G5C G17U,0
16,G5U U9G,0.554
17,G5U U9C,0.332
18,G6C G38A,0.0396
19,G6A G40U,0.911
20,C7A U79A,0.249
21,C7A U79G,0.192
22,G5C G38U,0
23,C7A U69G,0.751
24,G6C A78U,0

row,Variant,self-cleavage
1,G5C G10C,0
2,G5C G10U,0.0489
3,G6C C44A,0.208
4,C7G C26U,0.356
5,C7A C84U,0.366
6,G6A G29C,0.0326
7,G5U G76A,0.391
8,G6A U9A,0.942
9,C7G C24U,0.0692
10,G6U C86A,0.574
11,G5C G29A,0.147
12,G6C U65A,0.104
13,G5U A45C,0.0875
14,G5U A45G,0.692
15,G6A G50C,0.767
16,G5U A70G,0.375
17,C7A G67A,0.315
18,C7A G67C,0.302
19,G5U A43U,0.0978
20,G5U A43G,0
21,G6A C7U,0.283
22,C7A C85G,0.688
23,G6U A78G,0.229
24,G6C C58A,0.308

row,Variant,self-cleavage
1,G6C C58U,0.394
2,C7A A87U,0.505
3,G5U G59U,0.633
4,C7A G50C,0.415
5,G5C C63U,0.0437
6,G6C A70U,0.185
7,G6C A70C,0.133
8,G6U G25U,0.117
9,G6A G10U,0.0963
10,G6U C48U,0.696
11,G6U C48A,0.542
12,G6C C15G,0
13,C7G A45G,0.217
14,G5C U37G,0.111
15,G6A U12A,0.253
16,G6A U12G,0.415
17,G6A C85G,0.608
18,G6A C85U,0.735
19,G6U G54A,0.522
20,G6C C85G,0.375
21,G6C C85A,0.0791
22,G6C G68A,0.201
23,G6A U27A,0.514
24,G6A U27G,0.643

row,Variant,self-cleavage
1,G5U U12G,0.356
2,G6A G31U,0.219
3,G6A G52C,0.831
4,G6A U65C,0.554
5,G6C A42C,0.138
6,G6C A42U,0.158
7,G6C A77C,0.277
8,G6A U46C,0.508
9,G5C G54U,0.217
10,G5C G54C,0.158
11,C7A G59C,0.578
12,G5U G50A,0.196
13,G5U G50U,0.795
14,G6C C33U,0.155
15,G6A A87G,0.654
16,G6C G52C,0.237
17,G6A G17C,0.0923
18,G6A G17A,0.318
19,G5C G31A,0.0755
20,G5C G31C,0.0519
21,G6A C58A,0.724
22,C7A C14A,0.123
23,G5U C44U,0.369
